Measurements taken from patent US20140017714.

T1: full-length human recombinant IGFBP-4
T1 chain: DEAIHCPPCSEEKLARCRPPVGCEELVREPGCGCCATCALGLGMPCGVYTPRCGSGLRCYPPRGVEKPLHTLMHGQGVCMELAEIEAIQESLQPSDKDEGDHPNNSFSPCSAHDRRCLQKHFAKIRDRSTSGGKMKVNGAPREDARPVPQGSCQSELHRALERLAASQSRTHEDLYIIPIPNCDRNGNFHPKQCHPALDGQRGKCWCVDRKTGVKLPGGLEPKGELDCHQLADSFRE

B1: atherosclerotic form of PAPP-A (protein)
chain: EARGATEEPSPPSRALYFSGRGEQLRLRADLELPRDAFTLQVWLRAEGGQRSPAVITGLYDKCSYISRDRGWVVGIHTISDQDNKDPRYFFSLKTDRARQVTTINAHRSYLPGQWVYLAATYDGQFMKLYVNGAQVATSGEQVGGIFSPLTQKCKVLMLGGSALNHNYRGYIEHFSLWKVARTQREILSDMETHGAHTALPQLLLQENWDNVKHAWSPMKDGSSPKVEFSNAHGFLLDTSLEPPLCGQTLCDNTEVIASYNQLSSFRQPKVVRYRVVNLYEDDHKNPTVTREQVDFQHHQLAEAFKQYNISWELDVLEVSNSSLRRRLILANCDISKIGDENCDPECNHTLTGHDGGDCRHLRHPAFVKKQHNGVCDMDCNYERFNFDGGECCDPEITNVTQTCFDPDSPHRAYLDVNELKNILKLDGSTHLNIFFAKSSEEELAGVATWPWDKEALMHLGGIVLNPSFYGMPGHTHTMIHEIGHSLGLYHVFRGISEIQSCSDPCMETEPSFETGDLCNDTNPAPKHKSCGDPGPGNDTCGFHSFFNTPYNNFMSYADDDCTDSFTPNQVARMHCYLDLVYQGWQPSRKPAPVALAPQVLGHTTDSVTLEWFPPIDGHFFERELGSACHLCLEGRILVQYASNASSPMPCSPSGHWSPREAEGHPDVEQPCKSSVRTWSPNSAVNPHTVPPACPEPQGCYLELEFLYPLVPESLTIWVTFVSTDWDSSGAVNDIKLLAVSGKNISLGPQNVFCDVPLTIRLWDVGEEVYGIQIYTLDEHLEIDAAMLTSTADTPLCLQCKPLKYKVVRDPPLQMDVASILHLNRKFVDMDLNLGSVYQYWVITISGTEESEPSPAVTYIHGSGYCGDGIIQKDQGEQCDDMNKINGDGCSLFCRQEVSFNCIDEPSRCYFHDGDGVCEEFEQKTSIKDCGVYTPQGFLDQWASNASVSHQDQQCPGWVIIGQPAASQVCRTKVIDLSEGISQHAWYPCTISYPYSQLAQTTFWLRAYFSQPMVAAAVIVHLVTDGTYYGDQKQETISVQLLDTKDQSHDLGLHVLSCRNNPLIIPVVHDLSQPFYHSQAVRVSFSSPLVAISGVALRSFDNFDPVTLSSCQRGETYSPAEQSCVHFACEKTDCPELAVENASLNCSSSDRYHGAQCTVSCRTGYVLQIRRDDELIKSQTGPSVTVTCTEGKWNKQVACEPVDCSIPDHHQVYAASFSCPEGTTFGSQCSFQCRHPAQLKGNNSLLTCMEDGLWSFPEALCELMCLAPPPVPNADLQTARCRENKHKVGSFCKYKCKPGYHVPGSSRKSKKRAFKTQCTQDGSWQEGACVPVTCDPPPPKFHGLYQCTNGFQFNSECRIKCEDSDASQGLGSNVIHCRKDGTWNGSFHVCQEMQGQCSVPNELNSNLKLQCPDGYAIGSECATSCLDHNSESIILPMNVTVRDIPHWLNPTRVERVVCTAGLKWYPHPALIHCVKGCEPFMGDNYCDAINNRAFCNYDGGDCCTSTVKTKKVTPFPMSCDLQGDCACRDPQAQEHSRKDLRGYSHG
B2: human recombinant PAPP-A (protein)
chain: B1 chain

Columns and labels:
[1] = molecular target: T1, full-length human recombinant IGFBP-4
[2] = molecular target: full-length human recombinant IGFBP-5
Chain of full-length human recombinant IGFBP-5 (chain, as listed by the source): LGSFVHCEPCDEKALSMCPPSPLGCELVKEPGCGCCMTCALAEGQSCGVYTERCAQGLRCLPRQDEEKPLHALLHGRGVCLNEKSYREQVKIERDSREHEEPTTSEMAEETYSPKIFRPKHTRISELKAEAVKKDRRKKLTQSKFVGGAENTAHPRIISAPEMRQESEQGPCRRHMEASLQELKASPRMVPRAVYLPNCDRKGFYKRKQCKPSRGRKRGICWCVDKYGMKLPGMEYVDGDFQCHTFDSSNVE

Protein	proteolytic cleavage of IGFBP-4, Western blotting [1]	proteolytic cleavage of IGFBP-5, SDS-PAGE with Coomassie staining [2]
B1	atherosclerotic form of PAPP-A was shown to cleave IGFBP-4 with the same efficiency as recombinant PAPP-A	
B2	Western blotting detection of proteolytic fragments of IGFBP-4 demonstrating PAPP-A protease activity	PAPP-A-dependent cleavage of IGFBP-5 determined by sodium dodecyl sulphate polyacrylamide gel electrophoresis
